In patent US20250127942A1 (MEDICOVESTOR, published 2025):

Target: T1, recombinant 6His-Sp17 protein (human, UniProt Q15506 1-151, limits assumed)
T1 construct: The species is not restated for this recombinant protein; not shown: 6His tag
T1 sequence (looked up): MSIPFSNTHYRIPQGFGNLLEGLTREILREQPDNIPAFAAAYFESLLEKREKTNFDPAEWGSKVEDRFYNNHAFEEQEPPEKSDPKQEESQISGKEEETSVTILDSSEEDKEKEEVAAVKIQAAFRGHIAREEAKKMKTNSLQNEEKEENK
Assay: SPR (Biacore T200), 6His-Sp17 at 6.25-300 nM as analyte
Source text: The lines correspond, from highest to lowest, to fitted cycles for 300 nanomolar, 100 nanomolar, 50 nanomolar, 25 nanomolar, 12.5 nanomolar, and 6.25 nanomolar concentrations of 6His-Sp17.
The nucleotide sequences encoding the VH and VL regions of Example 1 were cloned into a mouse IgG2a heavy chain gene and a mouse kappa light chain gene, respectively, and expressed in CHO—S cells to produce a mouse-human chimeric antibody, which was named chAB2. Successful generation of the antibody was confirmed by SDS-PAGE and western blotting using anti-mouse heavy and light chain antibodies and recombinant Sp17 protein (FIGS. 2 & 3). The chAB2 antibody was reactive to mouse surface Sp17 protein expressed on the mouse ovarian cancer cell line ID8 (FIG. 4).

Kd: 2.07 nM | koff: 0.00013 s⁻¹ | kon: 62600 M⁻¹ s⁻¹
B1: mouse-human chimeric anti-Sp17 IgG2a/kappa monoclonal antibody chAB2 (antibody, V domains shown)
VH: QVQLQQSGAEVKKPGSSVKVSCKASGGTFSSYAISWVRQAPGQGLEWMGRIIPILGIANYAQKFQGRVTITADKSTSTAYMELSSLRSEDTAVYYCARPSEEVVAAYGAFDIWGQGTTVTVSS
VL: EIVLTQSPLSLPVRPGEPASISCRASQSLLRSDGFNYLDWYLQKPGQSPQLLVYLGSNRASGVPDRFSGSGSGTDFTLKISRVEAEDVGVYYCMQAVQTPYIFGQGTKLEIK
notes: also called anti-Sp17 antibody chAB2; chimeric monoclonal antibody (chAB2); not shown: mouse IgG2a heavy chain constant region; mouse kappa light chain constant region
